Where a chain is given by its changes, count along the chain named.
Key:
Assay in all cases: BLI (Octet), biotinylated CD123 ECD captured on streptavidin tips, hIL3 as analyte, level at 250 s normalised to loading
[1] = target: T1, CD123 ECD E51T (human, UniProt P26951 19-305)
T1 construct: Recombinant ECD
T1 sequence: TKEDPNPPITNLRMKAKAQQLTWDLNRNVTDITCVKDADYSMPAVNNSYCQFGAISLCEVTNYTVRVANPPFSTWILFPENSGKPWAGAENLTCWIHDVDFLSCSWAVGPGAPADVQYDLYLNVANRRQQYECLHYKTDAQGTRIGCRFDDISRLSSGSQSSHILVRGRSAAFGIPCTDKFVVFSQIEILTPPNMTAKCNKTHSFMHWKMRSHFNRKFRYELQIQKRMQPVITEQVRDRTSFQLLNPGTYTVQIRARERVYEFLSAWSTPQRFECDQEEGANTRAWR
Experimental: (§1) Binding of hIL3 (SinoBiological, PN: 11858-H08H) (analyte) to CD123 ECD wt. and variants (ligands) was performed using Streptavidin capture biosensor (SA) (Sartorius, PN: 18-5019). CD123 ECD wt. and variants were biotinylated using Biotinylation kit Type B (Abeam, PN: ab201796) following manufacturer instructions. Biotinylated CD123 ECD wt. and variants (ligands) were captured on SA tips for 1000 s to achieve a nm shift of 1.5 to 2 nm. Analyte hIL3 was titrated at 7 concentrations from 500 to 7.8 nM. Association to analyte was monitored for 300 s and dissociation for 120 s. Buffer only well was used as reference. No regeneration was performed, and a new set of tips was used for each biotinylated captured ligand. Data were analyzed using the Octet Data Analysis software HT 12.0. Due to the fast on/off nature of the interaction data were analyzed using Steady state analysis. Qualitative representation in FIG. 11 binding level were taken at 250 s association for all concentrations.

[2] = target: T2, CD123 ECD E51A (human, UniProt P26951 19-305)
T2 construct: Recombinant ECD
T2 sequence: T1 sequence with T33A
Experimental: as §1

[3] = target: T3, CD123 ECD S59F (human, UniProt P26951 19-305)
T3 construct: Recombinant ECD
T3 sequence: T1 sequence with T33E, S41F
Experimental: as §1

[4] = target: T4, CD123 ECD R84T (human, UniProt P26951 19-305)
T4 construct: Recombinant ECD
T4 sequence: T1 sequence with T33E, R66T
Experimental: as §1

[5] = target: T5, CD123 ECD R84Q (human, UniProt P26951 19-305)
T5 construct: Recombinant ECD
T5 sequence: T1 sequence with T33E, R66Q
Experimental: as §1

[6] = target: T6, CD123 ECD S59Y (human, UniProt P26951 19-305)
T6 construct: Recombinant ECD
T6 sequence: T1 sequence with T33E, S41Y
Experimental: as §1

Measured: binding result

B1: hIL3 (ligand, human, UniProt P08700 20-152, looked up)
chain: APMTQTTPLKTSWVNCSNMIDEIITHLKQPPLPLLDFNNLNGEDQDILMENNLRRPNLEAFNRAVKSLQNASAIESILKNLLPCLPLATAAPTRHPIHIKDGDWNEFRRKLTFYLKTLENAQAQQTTLSLAIF
notes: also called Interleukin-3
binds: all assays above

From patent US20250326818A1 (UNIVERSIT T BASEL, published 2025)
